Results on 3 molecules are retold here after article PMC2111872.

B1: chicken erythrocyte histone H5 (natural protein)
chain: MTESLVLSPAPAKPKRVKASRRSASHPTYSEMIAAAIRAEKSRGGSSRQSIQKYIKSHYKVGHNADLQIKLSIRRLLAAGVLKQTKGVGASGSFRLAKSDKAKRSPGKKKKAVRRSTSPKKAARPRKARSPAKKPKATARKARKKSRASPKKAKKPKTVKAKSRKASKAKKVKRSKPRAKSGARKSPKKK

The assay addresses H1- and H5-depleted chicken erythrocyte chromatin (DNA-core histone complex) (chicken (endogenous in erythrocytes)). As to the kind of experiment: co-sedimentation.
The molecule “calf thymus histone H1 (from UniProt P02253 1-213) (natural protein)” gave a stoichiometry N (linker histone molecules per nucleosome) of 2.

The molecule “chicken erythrocyte histone H1 (from UniProt P09987 1-218) (natural protein)” registered a stoichiometry N (linker histone molecules per nucleosome) of 2.

Molecule B1 showed a stoichiometry N (linker histone molecules per nucleosome) of 2.
